Blank lines part the entries; values can stand above or below the binder they belong to.
Experiments:
[1] = molecular target: human HLA-G expressed on cells (JEG3 naturally; Skov3 and PA-TU-8902 transfectants) (human); assay: cell-based or functional assay
[2] = molecular target: T1, monomeric human HLA-G β2M MHC class I complex (soluble recombinant wt HLA-G) (human); assay: ELISA, biotinylated wt HLA-G monomer on streptavidin plate; the 6th table ELISA series (monomer, dimer, trimer), separate from the 7th table
T1 construct: also called HLA-G-0003; wt HLA-G (monomer)
Protocol: The above table summarizes the binding of different rat anti-human HLA-G monoclonal antibodies, derived from wt protein IMS. Shown are the relative EC50 values [ng/ml] of the respective binding to rec. wt monomeric, dimeric and trimeric HLA-G proteins as assessed by ELISA. The ELISA was set up by coating the biotinylated wt HLA-G antigen to strepdavidin plates. After incubation and washing steps, the respective antibodies were bound in a concentration range from […] in 1:2 dilution steps. Detection of bound antibodies was carried out by anti-Fc-antibody-POD conjugates. EC50 values were determined from the resulting binding curves at the antibody concentrations generating the half-maximal signal. In case of the non-biotinylated HLA-G dimer and trimer antigens, immobilization was carried out by random coating on assay plates.

- % TNF release (restoration), different donor, JEG-3 wt co-culture; antibody 0.16 µg/ml [1]: 198%
- % TNF release (restoration), different donor, JEG-3 wt co-culture; antibody 0.63 µg/ml [1]: 219%
- % TNF release (restoration), different donor, JEG-3 wt co-culture; antibody 2.5 µg/ml [1]: 233%
- % TNF release (restoration), different donor, JEG-3 wt co-culture; antibody 10 µg/ml [1]: 221%
B1: HLA-G-0090 (antibody, V domains shown)
VH: QVQLQQSGPGLLKPSQTLSLTCAISGDSVSSNRAAWNWIRQSPSRGLEWLGRTYYRSKWYNDYAVSVQGRITLIPDTSKNQFSLRLNSVTPEDTAVYYCASVRAVAPFDYWGQGVLVTVSS
VL: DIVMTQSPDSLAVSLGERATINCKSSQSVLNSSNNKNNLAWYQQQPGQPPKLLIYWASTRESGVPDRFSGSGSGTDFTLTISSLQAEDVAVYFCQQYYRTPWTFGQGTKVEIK

- % TNF release (restoration), different donor, JEG-3 wt co-culture; antibody 0.16 µg/ml [1]: 14%
- % TNF release (restoration), different donor, JEG-3 wt co-culture; antibody 0.63 µg/ml [1]: 44%
- % TNF release (restoration), different donor, JEG-3 wt co-culture; antibody 2.5 µg/ml [1]: 67%
- % TNF release (restoration), different donor, JEG-3 wt co-culture; antibody 10 µg/ml [1]: 74%
B2: HLA-G-0031 (antibody, V domains shown)
VH: QVKLMQSGAALVKPGTSVKMSCNASGYTFTDYWVSWVKQSHGKRLEWVGEISPNSGASNFDENFKDKATLTVDKSTSTAYMELSRLTSEDSAIYYCTRSSHGSFRWFAYWGQGTLVTVSS
VL: AIVLNQSPSSIVASQGEKVTITCRASSSVSSNHLHWYQQKPGAFPKFVIYSTSQRASGIPSRFSGSGSGTSYSFTISRVEAEDVATYYCQQGSSNPYTFGAGTKLELK

- % TNF release (restoration), different donor, JEG-3 wt co-culture; antibody 0.16 µg/ml [1]: 44%
- % TNF release (restoration), different donor, JEG-3 wt co-culture; antibody 0.63 µg/ml [1]: 66%
- % TNF release (restoration), different donor, JEG-3 wt co-culture; antibody 2.5 µg/ml [1]: 59%
- % TNF release (restoration), different donor, JEG-3 wt co-culture; antibody 10 µg/ml [1]: 40%
- EC50 [2]: 4.95 ng/mL
B3: HLA-G-0041 (antibody, V domains shown)
VH: EVQLLESGGGLVQPGGSLRLSCAASGFTFSTYGMSWVRQAPGKGLEWVSVISGGGVSTYYADSVKGRFTISRDNSKNTLYLQMNRLRAEDTAVYYCAKDGSYNYGYGDYFDYWGQGTLVTVSS
VL: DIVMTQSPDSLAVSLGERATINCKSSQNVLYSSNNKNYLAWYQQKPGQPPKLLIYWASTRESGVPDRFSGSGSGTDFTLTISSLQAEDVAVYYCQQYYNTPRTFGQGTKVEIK
